Results taken from IntAct's records for PubMed 17928862.

B1: Charged multivesicular body protein 1b (Homo sapiens), Q7LBR1 (parent)
chain: MSNMEKHLFNLKFAAKELSRSAKKCDKEEKAEKAKIKKAIQKGNMEVARIHAENAIRQKNQAVNFLRMSARVDAVAARVQTAVTMGKVTKSMAGVVKSMDATLKTMNLEKISALMDKFEHQFETLDVQTQQMEDTMSSTTTLTTPQNQVDMLLQEMADEAGLDLNMELPQGQTGSVGTSVASAEQDELSQRLARLRDQV
partner: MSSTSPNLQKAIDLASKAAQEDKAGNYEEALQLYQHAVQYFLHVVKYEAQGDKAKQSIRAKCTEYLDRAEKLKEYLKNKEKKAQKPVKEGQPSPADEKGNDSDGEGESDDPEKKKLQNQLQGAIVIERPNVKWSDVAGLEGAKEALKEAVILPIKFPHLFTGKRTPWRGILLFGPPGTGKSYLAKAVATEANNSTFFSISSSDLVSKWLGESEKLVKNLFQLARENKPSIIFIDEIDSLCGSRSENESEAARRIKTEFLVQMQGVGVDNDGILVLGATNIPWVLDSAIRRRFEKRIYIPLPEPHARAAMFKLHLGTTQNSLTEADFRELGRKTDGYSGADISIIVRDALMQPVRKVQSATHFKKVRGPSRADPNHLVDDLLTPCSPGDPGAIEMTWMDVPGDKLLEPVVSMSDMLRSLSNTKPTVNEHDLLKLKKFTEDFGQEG
B2: Vacuolar protein sorting-associated protein 4A (Homo sapiens), Q9UN37 (parent)
chain: MTTSTLQKAIDLVTKATEEDKAKNYEEALRLYQHAVEYFLHAIKYEAHSDKAKESIRAKCVQYLDRAEKLKDYLRSKEKHGKKPVKENQSEGKGSDSDSEGDNPEKKKLQEQLMGAVVMEKPNIRWNDVAGLEGAKEALKEAVILPIKFPHLFTGKRTPWRGILLFGPPGTGKSYLAKAVATEANNSTFFSVSSSDLMSKWLGESEKLVKNLFELARQHKPSIIFIDEVDSLCGSRNENESEAARRIKTEFLVQMQGVGNNNDGTLVLGATNIPWVLDSAIRRRFEKRIYIPLPEEAARAQMFRLHLGSTPHNLTDANIHELARKTEGYSGADISIIVRDSLMQPVRKVQSATHFKKVCGPSRTNPSMMIDDLLTPCSPGDPGAMEMTWMDVPGDKLLEPVVCMSDMLRSLATTRPTVNADDLLKVKKFSEDFGQES
partner: B1 chain

Variants of: B1
Details: with vps4b_human VPS4B
L188A was tested, and the “effect of a mutation on the interaction” value was “decreasing interaction strength”. In the case of L192A, the “effect of a mutation on the interaction” value is reported as “decreasing interaction strength”.

Variants of: B2
Details: with chm1b_human CHMP1B
L64A was tested, and the “effect of a mutation on the interaction” value was “decreasing interaction strength”. In the case of L64D, the “effect of a mutation on the interaction” value is reported as “disrupting interaction strength”.
